Results on 1 substance are retold here after patent US20140294817A1.

As a reminder, the pKd is the Kd on a negative log10 scale, so that one unit is a factor of ten. Low readings indicate a high Kd, high ones a low Kd.

pKd: −log10 of the molar value.

One assay concerns the target Fcγ-receptor IV (mice). Kind of assay: flow cytometry saturation binding on HeLa cells expressing RFP-tagged FcγRIV (FIG. 61D, right panel).
The target of another assay is Fcγ-receptor IIb (mice) (UniProt P08101). Kind of assay: flow cytometry saturation binding on HeLa cells expressing RFP-tagged FcγRIIb (FIG. 61B, right panel). (In general: Flow cytometry measures light scatter and fluorescence of single cells or particles in a stream.)
Fcγ-receptor IIb (mice), sequence (P08101 30-330): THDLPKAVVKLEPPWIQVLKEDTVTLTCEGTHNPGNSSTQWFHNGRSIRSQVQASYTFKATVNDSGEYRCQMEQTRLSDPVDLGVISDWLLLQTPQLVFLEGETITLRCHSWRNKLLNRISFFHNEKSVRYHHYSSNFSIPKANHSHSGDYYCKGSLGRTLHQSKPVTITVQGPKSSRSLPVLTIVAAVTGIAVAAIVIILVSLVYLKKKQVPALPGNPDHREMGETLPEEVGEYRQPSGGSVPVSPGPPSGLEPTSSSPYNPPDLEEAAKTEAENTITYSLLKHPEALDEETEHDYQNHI
For another assay, the target named is Fcγ-receptor I (mice) (UniProt P26151). Kind of assay: flow cytometry saturation binding on HeLa cells expressing RFP-tagged FcγRI (FIG. 61A, right panel).
Fcγ-receptor I (mice), sequence (P26151 25-404): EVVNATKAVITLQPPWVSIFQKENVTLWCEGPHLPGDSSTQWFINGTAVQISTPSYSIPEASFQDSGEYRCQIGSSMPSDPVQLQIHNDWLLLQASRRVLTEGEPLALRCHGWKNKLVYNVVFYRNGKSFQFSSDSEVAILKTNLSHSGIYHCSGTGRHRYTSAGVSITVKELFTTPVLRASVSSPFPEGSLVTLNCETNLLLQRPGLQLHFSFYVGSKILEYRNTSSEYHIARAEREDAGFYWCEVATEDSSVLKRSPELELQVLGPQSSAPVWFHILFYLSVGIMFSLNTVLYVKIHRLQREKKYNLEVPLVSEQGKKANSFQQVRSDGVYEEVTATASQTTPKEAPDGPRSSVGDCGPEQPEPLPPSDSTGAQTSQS
Another assay has as its target Fcγ-receptor III (mice) (UniProt P08508). The assay can be described thus: flow cytometry saturation binding on HeLa cells expressing RFP-tagged FcγRIII (FIG. 61C, right panel).

Fcγ-receptor III (mice), sequence (P08508 31-261): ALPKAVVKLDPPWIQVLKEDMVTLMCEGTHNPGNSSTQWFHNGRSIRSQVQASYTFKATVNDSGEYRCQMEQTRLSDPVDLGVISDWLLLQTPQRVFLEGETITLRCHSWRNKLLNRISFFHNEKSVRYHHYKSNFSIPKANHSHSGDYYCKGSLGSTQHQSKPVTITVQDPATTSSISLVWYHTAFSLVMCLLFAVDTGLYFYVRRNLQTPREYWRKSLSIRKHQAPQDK
Fcγ-receptor IV (mice), sequence (A0A0B4J1G0 21-249): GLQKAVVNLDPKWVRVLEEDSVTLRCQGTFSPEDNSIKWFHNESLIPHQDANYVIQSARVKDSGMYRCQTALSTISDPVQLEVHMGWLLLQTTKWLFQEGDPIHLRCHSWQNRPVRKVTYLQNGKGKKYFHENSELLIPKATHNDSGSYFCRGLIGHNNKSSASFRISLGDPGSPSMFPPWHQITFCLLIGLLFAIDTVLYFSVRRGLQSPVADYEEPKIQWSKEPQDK

Regarding whole rabbit IgG (antibody), the pKd with Fcγ-receptor IV (mice) was 5.92; in the assay with Fcγ-receptor IIb (mice), 6.22; with Fcγ-receptor I (mice) it was 6.70; with Fcγ-receptor III (mice), 5.63.
